Measured values published in article PMC9428257.

Target: T1, human APRIL (a proliferation-inducing ligand) (human), O75888
T1 chain: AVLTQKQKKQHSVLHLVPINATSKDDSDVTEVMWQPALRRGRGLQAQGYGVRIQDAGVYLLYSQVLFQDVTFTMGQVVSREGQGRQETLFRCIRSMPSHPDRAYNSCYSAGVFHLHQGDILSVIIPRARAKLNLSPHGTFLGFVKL
Test: FACS
Details: domain or fragment; chains chain; remark: other sources report otherwise

Kd: 0.025 nM
B1: yeast-displayed wild-type sBCMA (human BCMA extracellular domain, Met1-Ala54), Q02223 1-54 (protein)
chain: MLQMAGQCSQNEYFDSLLHACIPCQLRCSSNTPPLTCQRYCNASVTNSVKGTNA
